This passage reports iScore results from patent publication US20090280138A1 (OXFORD BIOMEDICA UK, published 2009).

What all share (assay): iTopia iScore
The target in assay [1] is T1, MHC class I molecule B*0702 (biotin (bound to streptavidin-coated plate)).
T1 construct: also called B7; HLA-B7
The method, then: (§1) The 9 mers were tested for Peptide Binding, Off Rate and Affinity using iTopia Epitope Discovery System in accordance with the manufacturer's instructions. Briefly, 96 well microtitre plates coated with MHC molecules representing different MHC alleles are used to identify candidate peptides. […] Determinations are performed in duplicate using an ELISA plate reader and included allele specific positive controls.
(§2) Finally, multiparametric analysis is performed on the results from these assays and an iScore is generated. The iScore represents a measure of the overall quality of peptide-MHC binding, enabling candidate peptides to be ranked in order of binding quality and allowing rational prioritisation of peptides for functional cellular follow-up studies.

Assay [2] has as its target T2, MHC class I molecule A*0201 (biotin (bound to streptavidin-coated plate)).
T2 construct: also called A2; HLA-A2
The protocol: as §1, §2

Assay [3] deals with T3, MHC class I molecule A*0101 (biotin (bound to streptavidin-coated plate)).
T3 construct: also called A1; HLA-A1
The protocol: as §1, §2

Assay [4] deals with T4, MHC class I molecule A*0301 (biotin (bound to streptavidin-coated plate)).
T4 construct: also called A3; HLA-A3
The method, then: as §1, §2

On to LALVLLGWV [5T4 9-mer peptide 11 LALVLLGWV], for which the iScore in assay [1] was 0; in assay [2], 0.237; in assay [3], 0; in assay [4] it was 0.

As for SSSPTSSAS [5T4 9-mer peptide 16 SSSPTSSAS], the iScore in assay [1], in assay [2], in assay [3] and in assay [4] was 0 in each case.

For the molecule GWVSSSSPT [5T4 9-mer peptide 14 GWVSSSSPT], the iScore was determined as 0 in assay [1], 0.044 in assay [2], 0 in assay [3] and 0 in assay [4].

Turning to FSSSAPFLA [5T4 9-mer peptide 21 FSSSAPFLA], the iScore in assay [1] was determined as 0; in assay [2], 0.116; in assay [3], 0.023; in assay [4], 0.

For SSAPFLASA [5T4 9-mer peptide 22 SSAPFLASA], the iScore in assay [1] came out at 0; in assay [2], 0.389; in assay [3], 0; in assay [4], 0.

For APFLASAVS [5T4 9-mer peptide 23 APFLASAVS], the iScore stood at 0.176 in assay [1], 0.041 in assay [2], 0 in assay [3] and 0 in assay [4].

Turning to AGDGRLRLA [5T4 9-mer peptide 6 AGDGRLRLA], the iScore in assay [1] came out at 0; in assay [2], 0.023; in assay [3] it was 0; in assay [4] it was 0.

For the molecule PLPDQCPAL [5T4 9-mer peptide 29 PLPDQCPAL], the iScore in assay [1] was found to be 0; in assay [2], 0.88; in assay [3], 0; in assay [4], 0.

Regarding RLRLARLAL [5T4 9-mer peptide 8 RLRLARLAL], the iScore in assay [1] is 1; in assay [2], 0.216; in assay [3], 0; in assay [4], 0.027.

TSSASSFSS [5T4 9-mer peptide 18 TSSASSFSS]: the iScore in assay [1] is 0; in assay [2], 0.037; in assay [3], 0; in assay [4], 0.

Take PAAGDGRLR [5T4 9-mer peptide 5 PAAGDGRLR]: the iScore in assay [1], in assay [2], in assay [3] and in assay [4] was 0 throughout.

Turning to MPGGCSRGP [5T4 9-mer peptide 1 MPGGCSRGP], the iScore in assay [1], in assay [2], in assay [3] and in assay [4] was 0 in each case.

In the case of ASAVSAQPP [5T4 9-mer peptide 25 ASAVSAQPP], the iScore in assay [1], in assay [2], in assay [3] and in assay [4] was 0 each time.

FLASAVSAQ [5T4 9-mer peptide 24 FLASAVSAQ]: the iScore stood at 0 in assay [1], 0.134 in assay [2], 0 in assay [3] and 0 in assay [4].

In the case of LLGWVSSSS [5T4 9-mer peptide 13 LLGWVSSSS], the iScore in assay [1] was found to be 0; in assay [2], 0.243; in assay [3], 0; in assay [4] it was 0.

In the case of SASSFSSSA [5T4 9-mer peptide 19 SASSFSSSA], the iScore in assay [1] came to 0; in assay [2] it was 0.045; in assay [3], 0; in assay [4], 0.

In the case of SAQPPLPDQ [5T4 9-mer peptide 27 SAQPPLPDQ], the iScore in assay [1], in assay [2], in assay [3] and in assay [4] was 0 each time.

As for VSSSSPTSS [5T4 9-mer peptide 15 VSSSSPTSS], the iScore in assay [1], in assay [2], in assay [3] and in assay [4] was 0 throughout.

On to SSFSSSAPF [5T4 9-mer peptide 20 SSFSSSAPF], for which the iScore in assay [1] was 0; in assay [2], 0.037; in assay [3], 0; in assay [4] it was 0.

Consider DGRLRLARL [5T4 9-mer peptide 7 DGRLRLARL], for which the iScore amounted to 0.038 in assay [1], 0 in assay [2], 0 in assay [3] and 0 in assay [4].

RGPAAGDGR [5T4 9-mer peptide 4 RGPAAGDGR]: the iScore in assay [1] was determined as 0; in assay [2], 0.032; in assay [3], 0; in assay [4], 0.

As for SPTSSASSF [5T4 9-mer peptide 17 SPTSSASSF], the iScore in assay [1] came out at 0.335; in assay [2] it was 0; in assay [3], 0; in assay [4], 0.

Regarding CSRGPAAGD [5T4 9-mer peptide 3 CSRGPAAGD], the iScore in assay [1], in assay [2], in assay [3] and in assay [4] was 0 in each case.

In the case of GGCSRGPAA [5T4 9-mer peptide 2 GGCSRGPAA], the iScore amounted to 0.012 in assay [1], 0.016 in assay [2], 0 in assay [3] and 0 in assay [4].

For QPPLPDQCP [5T4 9-mer peptide 28 QPPLPDQCP], the iScore in assay [1], in assay [2], in assay [3] and in assay [4] was 0 each time.

For the molecule AVSAQPPLP [5T4 9-mer peptide 26 AVSAQPPLP], the iScore in assay [1] came to 0; in assay [2], 0.062; in assay [3], 0; in assay [4] it was 0.

For the molecule LVLLGWVSS [5T4 9-mer peptide 12 LVLLGWVSS], the iScore in assay [1] turned out to be 0; in assay [2], 0.122; in assay [3], 0; in assay [4], 0.

ARLALVLLG [5T4 9-mer peptide 10 ARLALVLLG]: the iScore stood at 0 in assay [1], 0.143 in assay [2], 0 in assay [3] and 0 in assay [4].
